Reference: the DeepSol protein solubility set

Assay: soluble on expression in E. coli; label from the status in PepcDB or PDB records

Sequence	soluble on expression in E. coli
MSLQAANLRQSRSMTLGLIVTEIINPYFAELAMAVDQIAHDAGYTIFIGYSRDHADRQHEIISSMIERQVDGILLLPAPDTDPEKLAKQVNAAGVPVVLLARRFAGFDYVGSENVKGATILGDHLSALGCRSVAFLGGLTASSLAEREEGLRASLEPRGCDVWSVDEFRSPITPEGGVAAVGRLFDQGKLPDAIIAYNDAVAQGIYDEMRRRGLEPGRDLAVASFDDTRIAASQVPPMTSVAGFPQEIGAKGAEMLMTRLADGNEDIPTQLTLIQPQLKIRSSTATWRREGHHHHHH	soluble
MSYSDYPSDIADYSSFDNMMADICNPSSSSSSNRKRQADPAPDNFAKIPAGMATQPLYFPIHYPVNSGWQSFDVNQVYNNHNMNQPGFGWVALPPPMPHNLQIPDQNSYKPRSGLPVPPPMAEFQDVNGIQQNPNEIFKNAPITSAMCTPESDISTSTNLTPDQDSAQLPLTEQELNEEKNFVVNIESPGKLAHYFLPNVESEQEPNEHIPYPYAKSLFPTFGVPVSSDGNVVAEVVDGRLPAVGTRSKYDITVDEIRRRCGAPEHMNQSALYCFFRKSKKREAINRVKQVLTVHNIPMRTMQRQRKVTCFSPFLEEEATALARDLDSISEEFLPINIIAQEMLEKLMSSGNNLDVCHRMLKNTTATITRVIKTLEVRQPKITGQEEKLKGNNLDLSYHNFSLITHGFGHPNSLSHYRSYLSIVERAVLLCEKIQNGQSLLSNEDVIPGQKPFERMSNEYFVEWQMNLYKKKLAKQMEEVEENKSQRGEHQQIHQHQLYQQHHTNTHPPMPLMPPSQMNLCPPITPIPPQNVYYY	not soluble
MHSAVFSPDAPYCGAAGSNHLCEAVALCQSILARYRRTGTSFSSTELKAIQALRTEFPDTAQEPAANSAASPDQTTKDFLSILDDATDVPHNPQNDIVAFVEECCDNTKEPTVLFAAINERISAVTCSRNVRTYMVIANDNLLWDPVNGVAALIDDVTPLGKCAQARNMLTIANTLYIPLWFRSELVGCVEVPGACIPRDKATCAQLLLRCVTVAVRNSINISIRKREANKIEAMVGMATRLARDTLEESVLVQSIINTAKTLTESDRCSIFLVKADGSLEAHFEDGNVVVLPAGTGIAGHVAESGAVVNIPNAYEDDRFHRSVDKVTGYHTRTILCLPIAFEGTIVAVAQLINKLDMVTQSGQRLPRVFGRRDEELFETFSMFAAASLRNCRINETLLKEKKKSDAILDVVALLSNTDIRDVDSIVRHVLHGAKKLLNADRSSMFLLDKERNELYSKMADSANEIRFPCGQGIAGTVAESGVGENIMDAYADSRFNSAVDRQLGYRTQSILCEPITLNGEVLAVVQLVNKLGDDGSVTCFTPMDRETFQVFSLFAGISINNSHLLEFAVNAGREAMTLSLQRNSITAQRAPKSVKVIAVTPEEREAVMSIDFGGAYDFTSPGFNLFEVREKYSEPMDAAAGVVYNLLWNSGLPEKFGCREQTLLNFILQCRRRYRRVPYHNFYHVVDVCQTLHTYLYTGKASELLTELECYVLLVTALVHDLDHMGVNNSFYLKTDSPLGILSSASGNNSVLEVHHCSLAIEILSDPAADVFEGLSGQDVAYAYRALIDCVLATDMAKHADALSRFTELATSGFEKDNDTHRRLVMETLIKAGDVSNVTKPFETSRMWAMAVTEEFYRQGDMEKEKGVEVLPMFDRSKNNELARGQIGFIDFVAGKFFRDIVGNLFHGMQWCVDTVNSNRAKWQEILDGRRDSIRSSIV	not soluble
MAHHHHHHMGGPREVTLKILDAIEAELKMSFKSIVEDRSLPYVSSSDTILVFGRSSLVEYILLSRSRDPQCKPKRVIVIDSAPLFEGRQLAEKLSSAGIDVTYGLITACCTLMPKCTRVFMGASAVLQNGDMFGRCGMALVAACAKLFRKPVLCFSESYKFVPEVWVGNLAQNTKLADMRPAAEVHGSDTGTHSPLVYPTPPTLSPPQLRASGGWGTPARGADFLTRSGGGGAVPFSSSASGYLYDLTPASYIDMIICEMGCLHTSAIVAAIKDREGRDTSQLLNLVRG	not soluble
MSLITIGITGGIGSGKSVVSRILLTLGIPVYDSDSRAKWLNDHSPVVRQALTGLIGSDLYENGILRRDRLAAAIFSSGDLLEQVNGIIHPEVKKDFCQWRSECESDLCAIESAILFSSGFNSLCDTVIRVDAPEKIRQERAMARDGSSAETMRQRMLSQEREQSLAKAGADHTVLNAPPHLLVPQVVRIIETVRTKRPNPPDEGHHHHHH	soluble
MNVLRSGIVTMLLLAAFSVQAACTWPAWEQFKKDYISQEGRVIDPSDARKITTSEGQSYGMFSALAANDRAAFDNILDWTQNNLAQGSLKERLPAWLWGKKENSKWEVLDSNSASDGDVWMAWSLLEAGRLWKEQRYTDIGSALLKRIAREEVVTVPGLGSMLLPGKVGFAEDNSWRFNPSYLPPTLAQYFTRFGAPWTTLRETNQRLLLETAPKGFSPDWVRYEKDKGWQLKAEKTLISSYDAIRVYMWVGMMPDSDPQKARMLNRFKPMATFTEKNGYPPEKVDVATGKAQGKGPVGFSAAMLPFLQNRDAQAVQRQRVADNFPGSDAYYNYVLTLFGQGWDQHRFRFSTKGELLPDWGQECANSH	soluble
MGSDKIHHHHHHMSQVIPASSQEKRRERIVSYVTRHGFARVEALAELFEVSAMTIHRDLEALAADNLVERIRGGARSVSPSMSELAVEQRRHLHRTVKEALCTAAARLIPEGAVVAIDDSTTLESLVEKLPQRSPSALITHSLKTMADHRVRAGMSDIRLIACAGLYFAETDSFLGKATSAQLNELSADISFVSTTAVRATGEVPALFHPDMEAADTKRALIGIGSVRVLVVDSSKFGSAGVFKVASIEEFDHIIIDQQCTREQRDLLRNSRAQIHVIDHNGDEILDTPTEEDF	not soluble
VTSSPFKTIKSDEIFAAAQKLMPGGVSSPVRAFKSVGGQPIVFDRVKDAYAWDVDGNRYIDYVGTWGPAICGHAHPEVIEALKVAMEKGTSFGAPCALENVLAEMVNDAVPSIEMVRFVNSGTEACMAVLRIMRAYTGRDKIIKFEGCYHGHADMFLVKAGSGVATLGLPSSPGVPKKTTANTLTTPYNDLEAVKALFAENPGEIAGVILEPIVGNSGFIVPDAGFLEGLREITLEHDALLVFDEVMTGFRIAYGGVQEKFGVTPDLTTLGKIIGGGLPVGAYGGKREIMQLVAPAGPMYQAGTLSGNPLAMTAGIKTLELLRQPGTYEYLDQITKRLSDGLLAIAQETGHAACGGQVSGMFGFFFTEGPVHNYEDAKKSDLQKFSRFHRGMLEQGIYLAPSQFEAGFTSLAHTEEDIDATLAAARTVMSAL	soluble
MKALTTRQQEVYDLVRDHLAQTGMPPTRAEIAQRLGFRSPNAAEEHLKALARKGVIEIVSGASRGIRLLMEEEEGLPLIGRVAAGEPLLAQQHIEGHYKVDPSLFKPGADFLLRVNGMSMRDIGILDGDLLAVHKTQDVRNGQVVVARIDDEVTVKRLKKQGNIVHLLPENSEFQPIVVDLREQSFTIEGLAVGVIRNGDWI	not soluble
VRDVLDNQEFGFTGLHVAAAVADTLGTGDTLFAAASNSIRDLSLVGMPFDGVDTFSPRGVAGIDGSVAQAIGTSLAVQSRHPDEIRAPRTVALLGDLSFLHDIGGLLIGPDEPRPENLTIVVSNDNGGGIFELLETGADGLRPNFERAFGTPHDASIADLCAGYGIEHQVVDNLQDLIIALVDTTEVSGFTIIEASTVRDTRRAQQQALMDTVH	not soluble
MSLGRFQTLDYEIPESMQRSWQDIVNLLAQIADVPTTLIMRVHQNHIEVNTSSDTQGNPYKAGDKEDLGHGLYCEHVIETKSQLVVPDALADEKWSNNPDIKLGMLSYCGLPLFWPNGETFGTICMLDSKANEYSETYRQLLNTFKDSIEAQLAVVYQQYKLLRLNSELKNRVENRTTDLAQLSFSLTQEIDRRKAAERQVNYQKTHDQGTGFLNRAALEAVVEDTLQSLEHGHQSLIVINVGFSNARSIQTRYGFEAFDEILKEFRKRLGMNDSNYFITGRPSSNDLVLLLWGEDADSKLHNLLDKITNISVGNFYINDTEVHLHSYVGVVQAHRSSSAKQLLQNACYAMLLCKESGEAYSYFCESHTHEGHHHHHH	soluble
MATIRDVAKRAGVSVATVSRVLNQNGYVNEETERRVRQAMKELNYKPNEVARALFKKTSKTVGLIVPDITNPFFPELVRAVEDVMNIYDYTVILCNSDEKVEKEREYIEVLKQKYVDGVILTTNQFAPEEVEEWDVPIVVLDRPLHERYPSVVADNYEGARLATRHLYEVGCRRIAHIQGPNHVVNAMERFRGYQDEMRALGLGDRQLVIQGNYQLKQAKEAVMAALAEHDMDGIFAGNDAMAVGALKAVQQCGLRVPDDIAIIGYDGIPLTEMTTPELSTVSQPIYEMGAMAARILIKQIEGKPLEKLHYQLPVQLVVRQSTSRRGLT	soluble
MPQSKFRLCSTKGTSMFSHIMIGSNDIEKSKVFYDAILSVLGYPAGVIDAKGRCLYINQDGVLGITKPVNGEPATHGNGMTIGFKVSSPELVEAWHAAGLANGGVACEDPPGIRTSGQRKMYLAYLRDPAGNKLCATHHMSTGN	not soluble
MGSDKIHHHHHHMRFLAYFGHLNIDVLISVDSIPREGSVNVKDLRPRFGGTAGNFAIVAQKFRIPFDLYSAVGMKTHREYLAMIESMGINTGHVEKFEDESGPICYIATDGKKQVSFMHQGAMEKWKPQLADEYEYVHFSTGPNYLDMAKSIRSKIIFDPSQEIHKYSKDELKKFHEISYMSIFNDHEYRVFREMTGLSSPKVTTIVTNGERGSSLFMDGKKYDFPAIPSSGDTVGAGDSFRAGLYLALYNRRSIEKGMIYGTIIAHHVIDDGIENFSLNMEDLERETENYRRMFTKRS	not soluble
MSLHSTPAPVASPLPSALDEAARLAVLHGLCLLDSPPDPVFDTIAAMAARMLGTEIALVSLVDEHRQWFKARVGLEAPETPRKHAFCAHALRSDDVLVIPDALLDPRFCNNPLVLGAPHIRFYAGAPLKLRDGHTIGTLCVIGTSPRAGLDAEQRIQLEGLRDLAVLRVENLRSSTYRNGPTGLPNRARFSEDLDAVLLQRTADSAATAIAVDLCGSDYFRDMVKALGWDYADGYVALAYKRLISKLPAGTALYRLDTTTFAFMVTTADPLRLSALCSKISKGFVAPLEHQGIPHTAVASIGAVLLETSYGAADTLRSLTTSVDVAREHCLTWSLYEREGHHHHHH	soluble
MAVMSYIDAITLAMREEMERDEKVFVLGEDVGKKGGVFKATHGLYDQFGEDRALDTPLAESAIAGVAIGAAMYGMRPIAEMQFADFIMPAVNQIVSEAAKIRYRSNNDWTCPITVRAPFGGGVHGALYHSQSVEAMFANQPGLKIVIPSTPYDAKGLLKAAIRDEDPVLFFEHKRAYRLIKGEVPEDDYVLPIGKADVKREGDDITVITYGLCVHFALQAAEKLAQDGISAHILDLRTVYPLDKEAIIEAASKTGKVLLVTEDNKEGSIMSEVAAIIAENCLFDLDAPIARLAGPDVPAMPYAPTMEKFFMVNPDKVEKAMRELAEF	not soluble
MKVMIEKILLVQTLKRLPRMGWLIKGVQEPESIADHSFGVAFITLVLADVLEKRGKRIDVEKALKMAIVHDLAEAIITDIPLSAQEFVDKDKAEALVFKKVFPEFYELYREYQECSSPEAQLVRIADKLDMILQAYQYELSGNKNLDEFWEAIEEIKRLELSKYLEDILNSVGRLKA	soluble
MYAAKGTQAYAQIGVESAVMSASQQQLVTMLFDGVLSALVRASLFMQDNNQQGKGVSLSKAINIIENGLRVSLDEESKDELTQNLIALYSYMVRRLLQANLRNDVSAVEEVEALMRNIADAWKESLLSPSLIQDPV	soluble
